Assay results reported in patent publication US20140173783.

Assays:
[1] = test system: ZFN 25716 (E32 ZFN6 monomer) (artificial); experiment: cell_activity; conditions: pair 25716/25717, NGS indels in maize Hi-II callus
[2] = test system: ZFN 25717 (E32 ZFN6 monomer) (artificial); experiment: cell_activity; conditions: pair 25716/25717, NGS indels in maize Hi-II callus

Question: “TGATCGCATCGGGCATCGGCGACTGATG (double strand) [25716 target]” was tested. Which activity (% of IPPK2 ZFN activity) [1] did it give?
Answer: Its activity (% of IPPK2 ZFN activity) is 380.

Question: How did the activity (% of IPPK2 ZFN activity) [2] turn out when “CGGAAGCGGATGGCCCGCTTCTTTAGAA (double strand) [25717 target]” was run?
Answer: The activity (% of IPPK2 ZFN activity) was 380.
